For the series, the target named is GST-RAP2.1 N-terminal 120 aa (AP2 DNA-binding domain) (UniProt Q8LC30 1-120). Kind of series: EMSA; 100 ng probe, 5 or 10 ug protein; EMSA as in cited ref 42; buffer, salt, pH and temperature not given; 100 ng probe with 5 or 10 ug protein. The following applies: protein: recombinant; tags: GST (pGEX6P-1, N-terminal).
GST-RAP2.1 N-terminal 120 aa (AP2 DNA-binding domain), sequence (Q8LC30 1-120): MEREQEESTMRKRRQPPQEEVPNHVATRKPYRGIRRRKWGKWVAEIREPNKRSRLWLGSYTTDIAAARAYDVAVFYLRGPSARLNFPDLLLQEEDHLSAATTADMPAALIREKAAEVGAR

B1: mDRE (dsDNA)
DNA 1: AATTCAAAAGATATACTACTTTTATGAGTT
DNA 2: AACTCATAAAAGTAGTATATCTTTTGAATT
B1: the binding result is reported as “no binding”.

B2: wDRE (dsDNA)
DNA 1: AATTCAAAAGATATACTACCGACATGAGTT
DNA 2: AACTCATGTCGGTAGTATATCTTTTGAATT
For the molecule B2, the binding result is “binds”.

Values taken from article PMC2848764, “The Arabidopsis EAR-motif-containing protein RAP2.1 functions as an active transcriptional repressor to keep stress responses under tight control”.
